Laboratory results reported in the RNAGym collection of RNA variant scans (doi:10.1073/pnas.2313332121).

B1: TPR t1 (parent)
chain: GACCAAUCUGCCCUCAGAGCUCGAGAACAUCUUCGGAUGCAGAGGAGGCAGGCUUCGGUGGCGCGAUAGCGCCAACGUCCUCAACCUCCAAUGCAUCCCACCACAUGAUGAUGCCUGAAGAGCCUUGGUUUUUUG

Variants of: B1
Assay: polymerase ribozyme fitness, log enrichment relative to wild type (log ratio); higher = more active; in vitro selection for triplet polymerase activity
Summary of the method: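 Both subunits of a heterodimeric triplet polymerase ribozyme were given their own mutant library, built by PCR and transcribed. Each library was annealed with a biotinylated primer, the partner subunit and triplets, incubated frozen at −7 °C, and its extended constructs gel-excised, captured on streptavidin beads and amplified by RT-PCR, all in one round done in triplicate. Fitness is the logarithm of genotype enrichment relative to wild-type enrichment, with replicates averaged by inverse-variance weighting. That logarithm is base 2, and Illumina-sequenced genotypes needed ≥10 input reads and ≥1 read per output.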

Row | Variant | polymerase ribozyme fitness (log ratio)
1 | GACCAAUCUGCCCUCAGAGCUCGAGAACAUCUUCGCAUGCAGAGGAGGCAGGCUUCGGUGGCGUGAUAGCGCCAACGUCCUCAACCUCCAAUACAUCCCCCCACAUGAUGAUGCCUGAAGAGCCUUGGUUUUUUG [G36C C64U G93A A100C] | -3.67
2 | GACCAAUCUGCCCUCAGAGCUCGAGAACAUCUUCGAAUGCAGAGGAGGCAGGCUUCGGUGGCGCGAUAGCGCCAACGUCCUCAACCUCCAAUGCAUCCCACCACAAGAUGAUGCCUGAAGAGCAUUGGGUUUUUG [G36A U106A C124A U129G] | 0.262
3 | GACCAAUCUGCCCUCAGAGCUCGAGAACAUCUUCGAAUGCAGAGGAGGCAGGCUUCGGUGGCGCGAUAGCGCCAACGUCCUCAACCUCCAAUGCAUCCCACCACAUGAUGAUGCCUGAAGAGCCUUUGUUUUGUG [G36A G127U U133G] | -3.26
4 | GACCAAUCUGCCCUCAGAGCUCGAGAACAUCUUCGAAUGCAGAGGAGACAGGCUUCGGUGGCGCGAUAGCGCCAACGUCCUCAACCUCCAAUGCAUCCCACCACAUGAUGAAGCCUGAAGAGCCUUGGUUCUUUG [G36A G48A U112A U131C] | 0.386
5 | GACCAAUCUGCCCUCAGAGCUCGAGAACAUCUUCGCAUGCAGAGGAGGCAGGCUUCGGUGGCGCGAUGGCGCCAACGUGCUCAACCUCCAAUGCAUCUCACCACAUGAUGAUGCUUGAAGAGCUUUGGUUUUUUG [G36C A68G C79G C98U C115U C124U] | -6.44
6 | GACCAAUCUGCCCUCAGAGCUCGAGAACAUCUUCGAAUGCAGAGGAGGCAGGCUGCGGUGGCGCGAUAGCGCCAACGUCCUCAACCUCCAAUGCAUCCCACCACAUGAUGAUGCAUGAAGAGCCUUGGUUUUUUG [G36A U55G C115A] | -1.03
7 | GACCAAUCUGCCCUCAGAGCUCGAGAACAUCUUCGCAUGCAGAAGAGGCAGGCUUCGGUGGCGCGAUAGCUCCAGCGUCCUCAACCUCAAAUGCAUCCCACCACAUGAUGAUGCCUGAAGAGCCUUGGUUUUUUG [G36C G44A G71U A75G C89A] | -4.65
8 | GACCAAUCUGCCCUCAGAGCUCGAGAACAUCUUCGAAUGCAGAGGAGGCAGGCUUCGGCGGCGCGAUAGCGCCAACGUCCUCAACCUCCAAUGCAUCCCACCACAUGAUGAUGCCUGAAGAGCCUGGGUUUUUUG [G36A U59C U126G] | -2.55
9 | GACCAAUCUGCCCUCAGAGCUCGAGAACAUCUUCGAAUGCAGAGGAGGCAGGCUUCGGUGGCGCGAUAGCUCCAACGUCCUCAACCUCCAAUGCAUCCCACCACAUGAUGAUGCCUGAAGAGCCUUGGUUUUUUG [G36A G71U] | -0.815
10 | GACCAAUCUGCCCUCAGAGCUCGAGAACAUCUUCGCAUGCAGAGGAGGCAGGCUUCGGUGGCGCGAUAGCGGCAACGUCCUCAACCUCCAAUGCAUCCCACAACAUGAUGAUGCCUGAAGAGCCUUGGUUUUUUG [G36C C72G C102A] | -4.94
11 | GACCAAUCUGCCCUCAGAGCUCGAGAACAUCUUCGAAUGCAGAGGAGGCAGGCUUCGGUGGCGCGAUAGCGCCAACGUCCUCAACCUCCAAUGCAUCCCACCACAUAAUGAUGCCUGAAGAGCAUUGGUUUUUUG [G36A G107A C124A] | -7.46
12 | GACCAAUCUGCCCUCAGAGCUCGAGAACAUCUUCGCAUGCAGAGGAGGCAGGCUUCGGUGGCGUGAUAGCGCCAACGUCCUCAACCUCCAAUGCAUCCCACCACAUGAUGAUGCCUGAAGAGCCUUGGUUUUUUG [G36C C64U] | -1.65
13 | GACCAAUCUGCCCUCAGAGCUCGAGAACAUCUUCGCAUGCAGAGGAUGCAGGCUGCGGUGUCGCGAUAGCGCCAACGUCCUCAACCUCCAAUGCAUCCCAUCACAUGAUGAUGCCUGAAGAGCCUUGGUUUAUUG [G36C G47U U55G G61U C101U U132A] | -3.11
14 | GACCAAUCUGCCCUCAGAGCUCGAGAACAUCUUCGCAUGCAGAGGAGGCAGGCUUCGGUGGCGCGAUAGCGACAACGUCCUCAACCUCCAAUGAAUCCCACCAUAUGAUGAUGCCUGAAGAGCCUUGGUUUUUUG [G36C C72A C94A C104U] | -3.64
15 | GACCAAUCUGCCCUCAGAGCUCGAGAACAUCUUCGCGUGCAGAGGAGGCAGGCUUCGGUGGCGCGAUAGCGCCAACGUACUCAACCUCCAAUGCAUCCCACCACAUGAUGAUGCCUGAAGAGCCUUGGUUUUUUG [G36C A37G C79A] | -2.53
16 | GACCAAUCUGCCCUCAGAGCUCGAGAACAUCUUCGCAUGAAGAGGAGGCAGGCUUCGGUGGUGCGAUAGCGUCAACGUCCUCAACCUCCAAUGCAUCCCACCACAUGAUGAUGCCUGAAGAGCCUUGGUUUUUUG [G36C C40A C62U C72U] | -4.22
17 | GACCAAUCUGCCCUCAGAGCUCGAGAACAUCUUCGAAUGCAGAGGAGGCAGGCUUCGGUGGCGCGAUAGCGCCAACGUCCUCAACCUCCAAUGCAUCCCACCACAUGAUGAUUCCUGAUGAGCCUUGGUUUUUUG [G36A G113U A119U] | -4.19
18 | GACCAAUCUGCCCUCAGAGCUCGAGAACAUCUUCGCAUGCAGAGGAGGCAGGCUUCGGUGGCGCGAUAGCGACAACGUCCUCAACCUCCAAUGCAUCCCACCACAUGAUGAUGCCUGAAGAACCUUGGUUUUUUG [G36C C72A G122A] | -1.22
19 | GACCAAUCUGCCCUCAGAGCUCGAGAACAUCUUCGCAUGCAGACGAGGCAGGCUUCGGUGGCGCGAUAGCGCUAACGUCCUCAACCUCCAAUGCAUCCCACCACAUGAUCAUGCCUGAAGAGCUAUGGUUUUUUG [G36C G44C C73U G110C C124U U125A] | -4.74
20 | GACCAAUCUGCCCUCAGAGCUCGAGAACAUCUUCGCAUCCAGAGGAGGCAGGCUUCGGUGGUGCGAUAGCGCCAACGUCCUCAACCUCCAAUGCAUCCCACCACAUGAUGAUGCCUGAAGAGCGUUGGUGUUUUG [G36C G39C C62U C124G U130G] | -1.27
21 | GACCAAUCUGCCCUCAGAGCUCGAGAACAUCUUCGCAUGCAGAGGAGGCAGGCUUCGGUGGCGCGAUAGCGCCAACGUCCUCAACCUCCACUGCAUCCCACCACAUGAUGAUGCCUGAAGAGCCUUGGUUUUUUG [G36C A91C] | -1.87
